Results reported in patent US20180022819A1, “COMPOSITIONS AND METHODS FOR COMBINATION THERAPY WITH PROSTATE-SPECIFIC MEMBRANE ANTIGEN BINDING PROTEINS” (APTEVO RESEARCH AND DEVELOPMENT LLC, priority 2015, published 2018).

Tests used:
[1] = test system: LNCaP cells; experiment: Effect of enzalutamide on redirected T-cell cytotoxicity in LNCaP cells expressing GFP (Example 1); assay type: cell-based, human; set-up: reduction of live target cells: dose or concentration left out as unconfirmed; conditions: TSC249 titration with T-cells and […] nM enzalutamide, compared to TSC249 and T-cells alone
Method: A titration of the anti-PSMA bispecific molecule TSC249 (protein sequence of SEQ ID NO: 78 in Table 3) was added to all sets of LNCaP cells in the amounts shown on the x-axis. T-cells and DMSO were added to the first set of LNCaP cells (leftmost set of bars). […] No T-cells and DMSO were added to the third set of LNCaP cells (set of bars second from the right). […] LNCaP cell growth (number of live cells) was measured by overall fluorescence and expressed as a fraction of live cells relative to the cells untreated with TSC249 on the y-axis.
LNCaP cells expressing GFP were cultured with donor T-cells at a 3:1 ratio of T-cells to LNCaP target cells for 4 days. […] DMSO alone was added to other samples. A titration of the anti-PSMA bispecific molecule TSC249 (protein sequence of SEQ ID NO: 78 in Table 3) was added to the cell cultures. LNCaP cell growth (number of live cells) was monitored by overall fluorescence.

[2] = test system: LNCaP cells; experiment: Growth inhibition of LNCaP-GFP cells with primary human T-cells, 4 days, with combination index analysis (Example 6); assay type: cell-based
Method: Additional procedures are described in Example 6. Percentage of live cells relative to an untreated control is shown on the y-axis.
Combination indices can indicate additive effects (CI=1), synergism (CI<1), or antagonism (CI>1).
Overall fluorescent signal from GFP enabled the quantitation of living LNCaP target cells in isolation from T-cells. […] TSC249 was added to have final concentrations of 125, 62.5, 31.25, 15.6, 7.8, 3.9, or 1.95 pM, or none. T-cells from several donors were used in replicate experiments, added at a ratio of 45,000 T-cells to 15,000 LNCaP cells per well.
After 4 days culture at 37° C. in 5% CO2, media was aspirated from wells and […] of 0.4% NP-40 was added to each well. Fluorescent signal from GFP in LNCaP cells adherent in wells was detected by a Spectramax plate reader, reading from the bottom of the wells. […]
The combination index theorem developed by Chou and Talalay was used to determine the interaction between the two compounds in their anti-cancer activity (see Chou, Cancer Res. 2010 Jan. 15; 70(2):440-6; Chou, Pharmacol Rev. 2006 September; 58(3):621-81). For each plate, relative fluorescence units (RFU) of all wells were normalized to the RFU of the well containing cells only, i.e., the proportion of living LNCaP cells in each well was expressed in relation to untreated LNCaP cells. […] Mean values were calculated from three replicates. […]

[3] = test system: 22Rv1 cells; experiment: Chromium-51 release assay of redirected T-cell cytotoxicity against 22Rv1 cells (Example 5); assay type: cell-based, human; conditions: enzalutamide-treated 22Rv1 cells relative to untreated 22Rv1 cells
Method: FIG. 3 (top panel) is a graph showing the results of a chromium-51 release assay measuring the effectiveness of the anti-PSMA bispecific molecule TSC249 at inducing redirected T-cell cytotoxicity in 4 hours against enzalutamide-treated and untreated prostate cancer 22Rv1 cells. Percent specific lysis relative to a total lysis control is shown on the y-axis. Concentration (pM) of the anti-PSMA bispecific molecule TSC249 is shown on the x-axis.
To compare the sensitivity of enzalutamide-treated and untreated 22Rv1 prostate cancer cells to target-dependent T-cell cytotoxicity, a bispecific binding molecule targeting PSMA and CD3 was tested in a chromium (^51Cr) release assay using donor T-cells as effector cells. [See, e.g., US 2014/0161800 A1, which describes multispecific binding molecules that bind to prostate-specific membrane antigen (PSMA) and CD3.]
Cytotoxicity was assessed by a ^51Cr release assay. […]
Plates were incubated for 4 hours, spun at 225×g for 3 minutes, and 25 μL of supernatant was transferred from each well to the corresponding well of a 96-well LUMAPLATE® sample plate (Perkin Elmer). Sample plates were allowed to air dry in a chemical safety hood for 18 hours, and then radioactivity was read on a Topcount scintillation counter using a standard protocol. […]

[4] = test system: PSMA; experiment: Binding of FITC-labeled 107-1A4 to 22Rv1 cells by flow cytometry (Example 4); set-up: species or system human; conditions: 22Rv1 cells that were or were not incubated with enzalutamide
Source text: Mean fluorescence intensity (MFI) of bound molecules on live cells is shown on the y-axis. Concentration (nM) of the anti-PSMA monoclonal antibody 107-1A4 labeled with FITC is shown on the x-axis.
22Rv1 cells (PSMA+ at low level) were obtained from ATCC (Manassas, Va.) and cultured according to the ATCC protocol in RPMI-1640 media plus 10% FBS. […] All four cultures were harvested, stained for PSMA with FITC-labeled anti-PSMA monoclonal antibody 107-1A4 (Acris), and PSMA expression assayed by standard flow cytometry procedures. 22Rv1 cells were harvested with trypsin, and placed into FACS buffer (PBS+0.5% BSA [Equitech]+2 mM EDTA [Life Technologies]) at 1×10e6 per ml. FITC-107-1A4 was prepared at 36 nM in FACS buffer, and serially diluted 1:3, before adding 50 μl to 2×10e5 22Rv1 cells which had been pelleted in a 96 well plate. After 30 minute incubation on ice, cells were washed 3 times in FACS buffer, resuspended in FACS buffer, and data acquired on a BD LSRII flow cytometer. The sample files were analyzed using FlowJo software; the median fluorescence intensity (MFI) of the live population of 22Rv1 cells in each well was calculated after gating on live cells (forward vs side scatter). Median fluorescence intensities were fit to a 4-parameter logistic curve and graphed as concentration vs. MFI using GraphPad PRISM® software.

Row | Molecule | reduction of live target cells [1] | interaction by combination index (Chou and Talalay) ([2]; 1.95-31.25 pM TSC249 at all enzalutamide concentrations used (39, 156, 625 nM)) | live cell signal when combined with the other drug ([2]; enzalutamide plus TSC249 over a wide range of concentrations, T-cells, 4 days) | specific lysis from T-cell directed cytotoxicity [3] | ECso values determined from binding curves [4]
1 | TSC249: anti-PSMA bispecific molecule targeting PSMA and CD3; protein sequence of SEQ ID NO: 78 (protein, Humanized TSC249 Scorpion (huVL-VH#2 107-1A4 scFv-Fc-DRA222 scFv)) DIQMTQSPSAMSASVGDRVTITCRASKSISKYLAWFQQKPGKVPKLRIHSGSTLQSGVPSRFSGSGSGTEFTLTISSLQPEDFATYYCQQHIEYPWTFGQGTKVEIKRGGGGSGGGGSGGGGSQVQLVQSGAEVKKPGASVKVSCKASGYTFTDYYMHWVRQAPGQGLEWMGYFNPYNDYTRYAQKFQGRVTMTRDTSISTAYMELSSLRSDDTAVYYCARSDGYYDAMDYWGQGTTVTVSSSEPKSSDKTHTCPPCPAPEAAGAPSVFLFPPKPKDTLMISRTPEVTCVVVDVSHEDPEVKFNWYVDGVEVHNAKTKPREEQYNSTYRVVSVLTVLHQDWLNGKAYACAVSNKALPAPIEKTISKAKGQPREPQVYTLPPSRDELTKNQVSLTCLVKGFYPSDIAVEWESNGQPENNYKTTPPVLDSDGSFFLYSKLTVDKSRWQQGNVFSCSVMHEALHNHYTQKSLSLSPGQRHNNSSLNTGTQMAGHSPNSQVQLVESGGGVVQPGRSLRLSCKASGYTFTRSTMHWVRQAPGQGLEWIGYINPSSAYTNYNQKFKDRFTISADKSKSTAFLQMDSLRPEDTGVYFCARPQVHYDYNGFPYWGQGTPVTVSSGGGGSGGGGSGGGGSAQDIQMTQSPSSLSASVGDRVTMTCSASSSVSYMNWYQQKPGKAPKRWIYDSSKLASGVPARFSGSGSGTDYTLTISSLQPEDFATYYCQQWSRNPPTFGGGTKLQITSSS | higher dose-dependent reduction of live target cells | Synergy | further decrease in live cell signal | increase in specific lysis | 
2 | FITC-107-1A4: FITC-labeled anti-PSMA monoclonal antibody 107-1A4 (Acris) (antibody, V domains shown) VH: EIQLQQSGPELVKPGASVKMSCKASGYTFTDYYMHWVKQNNGESLEWIGYFNPYNDYTRYNQNFNGKATLTVDKSSSTAYMQLNSLTSEDSAFYYCARSDGYYDAMDYWGQGTSVTVSS VL: DVQITQSPSYLAASPGETITINCRASKSISKYLAWYQEKPGKANKLLIHSGSTLQSGIPSRFSGSGSGTDFTLTISSLEPEDFAMYYCQQHIEYPWTFGGGTKLEIKRA |  |  |  |  | no significant differences
